Patent US20250085298A1 (TRITON SYSTEMS, published 2025)

T1: rabbit α-crystallin A (CRYAA), native protein in rabbit intraocular fluid (rabbit, UniProt P02493 1-173, limits assumed)
T1 construct: Analyte of the lateral flow assay in rabbit samples; also called Crystallin-αA; αA-Crystallin
T1 sequence (looked up): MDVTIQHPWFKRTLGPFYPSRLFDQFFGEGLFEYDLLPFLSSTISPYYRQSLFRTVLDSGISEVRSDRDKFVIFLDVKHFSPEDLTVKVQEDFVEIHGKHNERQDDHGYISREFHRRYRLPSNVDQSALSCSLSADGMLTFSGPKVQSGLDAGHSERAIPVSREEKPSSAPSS


Legend:
[1] = target: T1, rabbit α-crystallin A (CRYAA), native …; assay: lateral flow sandwich strip, MAB1601-AuNP conjugate with MAB1301 test line; swab of rabbit eye, Arm 3: 3 mm full-thickness laceration, AC/limbus, no confounder
Procedure: (§1) The expected results were that either one, or two, distinct red lines would form on the readout area of the test strip. The bottom half of the readout area on the nitrocellulose strip was expected to always show a red line (control), while appearance of the second line confirmed a positive result. The results were documented and whole test strip was imaged after removing the top of its plastic casing. The test strips were labelled and shipped on cold packs. For the second sample, 10-30 μL (as much as possible up to 30 μL) of the remaining ocular film was drawn by pipette and deposited in a microcentrifuge tube labeled with identities corresponding to the test strips. To this liquid sample, an equal volume of RNAlater solution was added and the sample was stored at −80° C. until shipment to the client on dry ice. Following sedation, rabbits were euthanized by intravenous barbiturate overdose. Euthasol® was delivered via the marginal ear vein at a concentration of 390 mg/ml, and a dose of 87 mg/kg. Following confirmation of euthanasia, whole corneas with sclera rims were collected and immediately placed in PBS. The medium was then exchanged for freshly made 4% PFA and tissue was fixed at room temperature for 23 hours. The tissue was then embedded in paraffin and shipped for further analysis. […]

[2] = target: T1, rabbit α-crystallin A (CRYAA), native …; assay: lateral flow sandwich strip, MAB1601-AuNP conjugate with MAB1301 test line; swab of rabbit eye, Arm 9: 1 mm full-thickness puncture, peripheral cornea, no confounder
Procedure: as §1

Row | binding result [1] | binding result [2] | Binder
1 | binds |  | MAB1601 (Conjugate Ab; target recognition element) (antibody, mouse IgG1, kappa, V domains shown, Custom anti-CRYAA monoclonal antibody made in mice against the modified C-terminal CRYAA immunogen; In the assay its amines were coupled to carboxyl gold nanoparticles by EDC/sNHS chemistry; also called conjugate antibody; upstream target recognition element) VH: EVKLQESGPSLVKPSQTLSLTCSVTGDSITSGYWNWIRKFPGNKLEYMGYISYSGSTYFNPSLKSRISITRDTSKNQYYLQLNSVTTEDTATYYCSTGFAYWGQGTLVTVSA VL: DIVMSQSPSSLAVSVGEKVIMRCNSSQSLLYSGNRENYLAWYQQKPGQSPNLLIYWASRRASGVPDRFAGGGSGTDFTLTISSVKAEDLAVYYCQHYYNYPLTFGAGTRLELKR
2 |  | binds | MAB1301 (Test Line Ab; test element) (antibody, mouse IgG1, kappa, V domains shown, Custom anti-CRYAA monoclonal antibody made in mice; It was immobilised on the nitrocellulose test line; also called MAB1301 T-line; test-line antibody) VH: EVKLQESGPSLVRPGASVKMSCKASGYTFTSYNMHWVKQTPRQGLEWIGAIYPGNGDTSYNQKFKGKATLTVDKSSSTAYMQLSSLTSEDSAVYFCARVVYYSNSYWYFDVWGTGTTVTVSA VL: DIVMSQSPSSLAVSVGEKVIMRCNSSQSLLYSGNRENYLAWYQQKPGQSPNLLIYWASRRASGVPDRFAGSGSGTDFTLTISSVKAEDLAVYYCQHYYNYPLTFGAGTRLELKR
